The assay concerns the target PKM2 (mouse (endogenous in splenic B cells of C57BL/6J mice)) (UniProt P52480). The assay is described as follows: cross-linking; lysates of purified CD19+ splenic B cells from C57BL/6J mice cultured with or without Hcy (100 μmol/L) for 24 h, cross-linked with glutaraldehyde; Western blot for PKM2 oligomer states. For orientation: A western blot detects proteins with antibodies after separation by electrophoresis.

“And” between values parts separate entries of the source, which are not always exact repeats. Equal entries are not always repeated.

What is called stoichiometry N is the number of molecules, sites or subunits per partner or assembly.

PKM2, P52480 1-531 (enzyme; other documents disagree on this pair), sequence (P52480 whole entry): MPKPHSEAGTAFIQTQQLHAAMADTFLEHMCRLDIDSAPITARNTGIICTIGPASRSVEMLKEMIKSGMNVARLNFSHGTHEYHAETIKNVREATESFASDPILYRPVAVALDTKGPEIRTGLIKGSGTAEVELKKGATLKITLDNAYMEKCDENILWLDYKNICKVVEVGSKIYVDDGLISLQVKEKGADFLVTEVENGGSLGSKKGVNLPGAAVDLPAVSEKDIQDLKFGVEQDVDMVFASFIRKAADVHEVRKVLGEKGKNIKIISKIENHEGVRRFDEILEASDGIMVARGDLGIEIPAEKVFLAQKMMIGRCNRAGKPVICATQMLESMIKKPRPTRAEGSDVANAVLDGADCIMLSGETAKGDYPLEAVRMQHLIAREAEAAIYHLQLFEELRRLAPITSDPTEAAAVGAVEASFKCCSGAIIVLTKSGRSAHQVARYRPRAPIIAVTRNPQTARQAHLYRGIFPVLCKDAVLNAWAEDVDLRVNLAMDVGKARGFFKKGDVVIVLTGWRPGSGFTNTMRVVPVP

Regarding “PKM2, P52480 1-531 (enzyme; other documents disagree on this pair)”, the stoichiometry N was 4 and 2.

Values taken from paper PMC9226200.
